The text below walks through data of patent US20080182978A1, “ANTI-NGF ANTIBODIES AND METHODS USING SAME” (RINAT NEUROSCIENCE CORP, priority 2002, published 2008).

The target of experiment [1] is T1, BDNF (Homo sapiens, UniProt P23560).
T1 sequence (P23560 129-247): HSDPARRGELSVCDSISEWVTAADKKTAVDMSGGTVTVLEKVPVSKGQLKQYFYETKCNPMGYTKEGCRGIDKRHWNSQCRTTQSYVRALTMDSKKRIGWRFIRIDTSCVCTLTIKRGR
In words: Mouse E17 nodose neuron survival assay, BDNF. Type of experiment: cell-based. Particulars: BDNF 400 pM; antibody up to 200 nM; 48 hours. The protocol:
The ability of antibody E3 to specifically block NGF activity was also evaluated by measurement of the capacity of the antibody to inhibit survival of mouse nodose E17 neurons in the presence of saturating concentrations of BDNF or NT4/5. Survival of nodose neurons is supported by BDNF or NT4/5; therefore, survival of these neurons is a sensitive assay to evaluate the BDNF or NT4/5-blocking ability of the anti-NGF antagonist antibody.
(§1) The survival assay was conducted as follows: time mated pregnant Swiss Webster female mice were euthanised by CO2 inhalation. The uterine horns were removed and the embryos (at embryonic day 17 or 18) were extracted and decapitated. The trigeminal and nodose ganglia were dissected and cleaned. The ganglia were then trypsinised, mechanically dissociated and plated at a density of 100-300 cells per well in defined, serum-free medium in 4-well plates (Greiner) coated with poly-L-ornithine and laminin.
E17 nodose neurons were grown either in the absence of added neurotrophic factors (negative control), or with saturating concentrations of BDNF (400 pM) (positive control) or NT4/5 (400 pM) or NGF unrelated growth factor […]. High concentrations of neurotrophins were used, as the goal of this experiment was to test specificity of the antibodies. […]

In experiment [2] the test system is post-surgical resting pain (paw incision). The experiment is described as follows: Post-surgical pain model, cumulative resting pain score. Type of experiment: in vivo, rat.
The target in experiment [3] is human NGF (Homo sapiens, UniProt P01138). The experiment is described as follows: Mouse E13.5 trigeminal neuron survival assay, human NGF. Type of experiment: cell-based. To be noted: 0.4 ng/ml human NGF (saturating); 0.00128-20 nM. The protocol: The ability of Fab E3 or full antibody E3 to block NGF activity was evaluated by measurement of the capacity of the antibody to inhibit NGF-dependent survival of mouse E13.5 trigeminal neurons in vitro. The trigeminal ganglion is comprised of cutaneous sensory neurons that innervate the facial region. The survival of mouse E13.5 trigeminal neurons is a sensitive assay to evaluate the NGF-blocking activity of anti-NGF antagonist antibodies because NGF is required to support survival of these neurons. For example, at saturating concentrations of NGF, the survival is close to 100% by 48 hours in culture. By contrast, less than 5% of the neurons survive by 48 hours in absence of NGF.
The survival assay was conducted as follows: time-mated pregnant Swiss Webster female mice were euthanized by CO2 inhalation. The uterine horns were removed and the embryos at embryonic stage E13.5 were extracted and decapitated. The trigeminal ganglia were dissected using electrolytically sharpened tungsten needles. The ganglia were then trypsinized, mechanically dissociated and plated at a density of 200-300 cells per well in defined, serum-free medium in 96-well plates coated with poly-L-ornithine and laminin.
After 48 hours in culture, the cells were subjected to an automated immunocytochemistry protocol performed on a Biomek FX liquid handling workstation (Beckman Coulter) as follows: fixation using 4% formaldehyde, 5% sucrose, and PBS; permeabilization using 0.3% Triton X-100 in PBS); blocking of unspecific binding sites using 5% normal goat serum, 0.11% BSA in PBS; and sequential incubation with a primary and secondary antibodies to detect neurons. The primary antibody was rabbit polyclonal antibody against the protein gene product […] (PGP9.5, Chemicon), an established neuronal phenotypic marker. The secondary antibody was Alexa Fluor 488 goat anti-rabbit (Molecular Probes), together with the nuclear dye Hoechst 33342 (Molecular Probes) to label the nuclei of all the cells present in the culture. […]

The target of experiment [4] is T2, NT3 (Homo sapiens, UniProt P20783).
T2 sequence (P20783 139-257): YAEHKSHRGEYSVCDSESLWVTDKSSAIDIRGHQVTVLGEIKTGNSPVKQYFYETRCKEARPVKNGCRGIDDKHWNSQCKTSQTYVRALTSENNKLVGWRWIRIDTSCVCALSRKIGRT
The experiment is described as follows: Mouse E17/18 trigeminal neuron survival assay, NT3. Type of experiment: cell-based. To be noted: saturating NT3; antibody up to 200 nM; 48 hours. The protocol: The ability of antibody E3 to specifically block NGF activity was evaluated by measurement of the capacity of the antibody to inhibit survival of mouse E17/18 trigeminal neurons in vitro in the presence of saturating concentrations of NGF, the NGF-related neurotrophin NT3, or the NGF-unrelated neurotrophic factor, macrophage stimulating protein (MSP). The survival of mouse E17/18 trigeminal neurons is a sensitive assay to evaluate the NGF-blocking activity of anti-NGF antagonist antibodies because NGF is required to support survival of these neurons at higher concentrations than the level of NGF required to support survival of E13.5 TG neurons).
as §1
E17/18 trigeminal neurons were grown either without added neurotrophic factors (negative control) or in the presence of saturating concentrations of human NGF (400 pM and 15 pM) (positive control); NT3 (400 pM); or MSP (600 pM). […]

“Also recorded” adds a separate entry of the source.

Sequence of human NGF (P01138 122-241): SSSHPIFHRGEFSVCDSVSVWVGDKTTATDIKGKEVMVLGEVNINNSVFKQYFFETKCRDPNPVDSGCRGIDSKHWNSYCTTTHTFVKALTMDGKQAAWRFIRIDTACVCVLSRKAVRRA

B1: E3: humanized, affinity matured anti-NGF antagonist antibody; variable regions SEQ ID NO:1 and 2; human IgG2a (A330P331 to S330S331), kappa (antibody, V domains shown)
VH: QVQLQESGPGLVKPSETLSLTCTVSGFSLIGYDLNWIRQPPGKGLEWIGIIWGDGTTDYNSAVKSRVTISKDTSKNQFSLKLSSVTAADTAVYYCARGGYWYATSYYFDYWGQGTLVTVS
VL: DIQMTQSPSSLSASVGDRVTITCRASQSISNNLNWYQQKPGKAPKLLIYYTSRFHSGVPSRFSGSGSGTDFTFTISSLQPEDIATYYCQQEHTLPYTFGQGTKLEIKRT
modifications: human IgG2a constant (A330S/P331S) and kappa constant missing
For the molecule B1, in experiment [1], the “survival of E17 nodose neurons promoted by BDNF” value was “had no effect; also recorded: did not inhibit”. Moreover, the “resting pain (cumulative pain score)” value in experiment [2] (0.5 mg/kg i.v. two hours after surgery, assessed 24 hours after surgery) is on record as “effectively alleviated post-surgical pain; also recorded: reduced resting pain”; in experiment [2] (0.02 to 1 mg/kg i.p. 15 hours pre-incision, 24 hours after surgery, vs saline) it was “significantly reduced resting pain”. For the same molecule, in experiment [3], the “inhibition of NGF-dependent survival compared with antibody 911 and trkA immunoadhesin” value was “blocked NGF significantly better than either mouse monoclonal anti-NGF antibody 911 or the trkA immunoadhesin”. For the same molecule, the “survival of E17/18 trigeminal neurons promoted by NT3” value in experiment [4] is on record as “had no effect; also recorded: did not inhibit”.
